Laboratory results reported in FireProtDB (doi:10.1182/blood-2007-11-122457).

Conditions: Homo sapiens; pH 7.4; Thermal; DSC; Sodium phosphate 10mM; NaCl 130 mM; transition: 2; reversible: yes; structure 1OWA

First: Spectrin alpha chain, erythrocytic 1, P02549 G46V
Second: Spectrin alpha chain, erythrocytic 1, P02549 I24S
The Tm of the first is lower: 52.8 °C for the first, 53.2 °C for the second.

Going from “Spectrin alpha chain, erythrocytic 1, P02549 I24T” to “Spectrin alpha chain, erythrocytic 1, P02549 K48R”, the Tm rises from 54.4 °C to 54.7 °C.

Compared with “Spectrin alpha chain, erythrocytic 1, P02549 L49F”, “Spectrin alpha chain, erythrocytic 1, P02549 R28H” is lower in Tm: 55.4 °C for the first, 53.6 °C for the second.

First: Spectrin alpha chain, erythrocytic 1, P02549 R28L
Second: Spectrin alpha chain, erythrocytic 1, P02549 R28S
The Tm of the first is lower: 53.1 °C for the first, 53.3 °C for the second.

First: Spectrin alpha chain, erythrocytic 1, P02549 R34W
Second: Spectrin alpha chain, erythrocytic 1, P02549 R45S
The Tm of the first is lower: 49.1 °C for the first, 55.1 °C for the second.

First: Spectrin alpha chain, erythrocytic 1, P02549 R45T
Second: Spectrin alpha chain, erythrocytic 1, P02549 V31A
The Tm of the first is higher: 54.6 °C for the first, 54.5 °C for the second.

Compared with “Spectrin alpha chain, erythrocytic 1, P02549 G46V”, “Spectrin alpha chain, erythrocytic 1, P02549 I24S” is higher in “change of melting temperature, mutant - wild type (higher = more stable)” value (shortened to “change of melting temperature, mutant”): -1.8 °C for the first, -1.4 °C for the second.

Going from “Spectrin alpha chain, erythrocytic 1, P02549 I24T” to “Spectrin alpha chain, erythrocytic 1, P02549 K48R”, the “change of melting temperature, mutant” value rises from -0.2 °C to 0.1 °C.

Going from “Spectrin alpha chain, erythrocytic 1, P02549 L49F” to “Spectrin alpha chain, erythrocytic 1, P02549 R28H”, the “change of melting temperature, mutant” value falls from 0.8 °C to -1 °C.

Going from “Spectrin alpha chain, erythrocytic 1, P02549 R28L” to “Spectrin alpha chain, erythrocytic 1, P02549 R28S”, the “change of melting temperature, mutant” value rises from -1.5 °C to -1.3 °C.

First: Spectrin alpha chain, erythrocytic 1, P02549 R34W
Second: Spectrin alpha chain, erythrocytic 1, P02549 R45S
The “change of melting temperature, mutant” value of the first is lower: -5.5 °C for the first, 0.5 °C for the second.

First: Spectrin alpha chain, erythrocytic 1, P02549 R45T
Second: Spectrin alpha chain, erythrocytic 1, P02549 V31A
The “change of melting temperature, mutant” value of the first is higher: 0 °C for the first, -0.1 °C for the second.
